From US20230279117A1 (published 2023) come the findings set out here.

Positions count from the first letter of the chain named. Where two headings read alike, the source gives them in different places.

Assay [1] concerns the target T1, full length human PD-L1 expressed on cells (human, UniProt Q9NZQ7 19-290).
T1 construct: in HEK293/OS8/PD-L1 co-expressed with the membrane anti-CD3 scFv OS8; also called HEK293/PD-L1; HEK293/OS8/PD-L1
As to the kind of experiment: FACS competition with CD80/Fc on HEK293/PD-L1 cells.

Assay [2] has as its target T1, full length human PD-L1 expressed on …. Nature of the assay: cell-based or functional assay.
Assay [3] has the same target. As to the kind of experiment: FACS competition with PD-1/Fc on HEK293/PD-L1 cells.
Assay [4] has the same target. As to the kind of experiment: cell-based or functional assay. This is another data set of the same source.
For assay [5] the target is unchanged. As to the kind of experiment: FACS competition with PD-1/Fc on HEK293/PD-L1 cells. This is another data set of the same source.
The target in assay [6] is T2, human PD-L1-ECD/His (human, UniProt Q9NZQ7 19-238).
T2 construct: also called PD-L1/His; human PD-L1/His
T2 sequence (Q9NZQ7 19-238): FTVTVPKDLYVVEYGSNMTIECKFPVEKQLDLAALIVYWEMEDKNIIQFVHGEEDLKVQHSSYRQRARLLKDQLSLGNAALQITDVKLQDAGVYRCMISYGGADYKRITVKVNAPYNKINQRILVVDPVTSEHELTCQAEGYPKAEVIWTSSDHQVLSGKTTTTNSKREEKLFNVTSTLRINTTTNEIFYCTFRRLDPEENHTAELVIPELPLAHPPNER
As to the kind of experiment: SPR (BIAcore T-200), Fab, human PD-L1. As for the experimental part: (§1) For affinity determinations of anti-PD-L1 Fabs, SPR assays were performed using BIAcore™ T-200 (GE Life Sciences). Briefly, human PD-L1/His was coupled to an activated CM5 biosensor chip (Cat. No. BR100530, GE Life Sciences) to achieve approximately 100-200 response units (RU), followed by blocking un-reacted groups with 1 M ethanolamine. A serial dilutions of 0.12 nM to 90 nM Fab samples were injected, mixed into the SPR running buffer (10 mM HEPES, 150 mM NaCl, 0.05% Tween20, pH7.4) at 30 µL/minute, and binding responses on human PD-L1/His were calculated by substracting of RU from a blank flow-cell. Association rates (kₒₙ) and dissociation rates (koff) were calculated using the one-to-one Langmuir binding model (BIA Evaluation Software, GE Life Sciences). The equilibrium dissociation constant (Kd) was calculated as the ratio koff/kₒₙ.
(§2) For affinity determinations of anti-PD-L1 Fabs, SPR assays were conducted using BIAcore™ T-200 instrument (GE Life Sciences, Shanghai, China) as described earlier. Association rates (kₒₙ) and dissociation rates (koff) were calculated using the one-to-one Langmuir binding model (BIA Evaluation Software, GE Life Sciences). The equilibrium dissociation constant (Kd) was calculated as the ratio koff/kₒₙ.
In general terms: In SPR one partner is held on a chip, and binding of the other changes the refractive index at the surface.

The target in assay [7] is T2, human PD-L1-ECD/His. As to the kind of experiment: SPR (BIAcore T-200), PD-L1/His on CM5 chip, Fab injected; koff may be too slow to measure. As for the experimental part: as §1
Assay [8] addresses T3, cynomolgus monkey PD-L1/His (cynomolgus monkey (Macaca fascicularis), UniProt G7PSE7 19-239).
T3 construct: not shown: His tag
As to the kind of experiment: SPR (BIAcore T-200), Fab, monkey PD-L1.

In assay [9] the target is T2, human PD-L1-ECD/His. Nature of the assay: SPR (BIAcore T-200), PD-L1/His on CM5 chip, Fab injected. How it is done: as §1
Assay [10] deals with T3, cynomolgus monkey PD-L1/His. As to the kind of experiment: SPR (BIAcore T-200), Fab, monkey PD-L1; koff may be too slow to measure.
Assay [11] deals with T1, full length human PD-L1 expressed on …. Nature of the assay: FACS competition with CD80/Fc on HEK293/PD-L1 cells. The source holds these as a separate data set.
Assay [12] deals with T2, human PD-L1-ECD/His. Nature of the assay: SPR (BIAcore T-200), Fab, human PD-L1; koff may be too slow to measure. How it is done: as §1, §2
Assay [13] concerns the target T3, cynomolgus monkey PD-L1/His. Nature of the assay: ELISA, 200 ng PD-L1 protein coated per well. As for the experimental part:
The monkey PD-L1/His and murine PD-L1/His were expressed and purified in a similar way to the human PD-L1/His as described earlier. […] The synthesized full length mAb was named as Y1-IgG1mc. The ELISA assay was performed essentially in the same way as described in the previous section. Briefly, 200 ng of PD-L1 protein was coated on each well of Nunc MaxiSorp ELISA plate (Cat. No. 442404, Nunc, Thermo Fisher). After washing and blocking, indicated concentrations of anti-PD-L1 mAbs were added and incubated at room temperature for 1 hour. After washing, the bound anti-PD-L1 mAbs were detected using a HRP-conjugated goat anti-human Fc antibody (Cat. No. A0170, Sigma).

T1 sequence (Q9NZQ7 19-290 limits assumed): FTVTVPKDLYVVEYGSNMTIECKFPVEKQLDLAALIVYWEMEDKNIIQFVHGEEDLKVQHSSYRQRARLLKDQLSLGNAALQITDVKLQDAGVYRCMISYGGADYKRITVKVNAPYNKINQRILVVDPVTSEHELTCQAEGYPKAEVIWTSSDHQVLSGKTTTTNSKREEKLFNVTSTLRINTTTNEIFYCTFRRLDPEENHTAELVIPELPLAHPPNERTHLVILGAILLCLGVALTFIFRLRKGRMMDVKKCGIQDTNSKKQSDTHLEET
T3 sequence (G7PSE7 entry or part of it): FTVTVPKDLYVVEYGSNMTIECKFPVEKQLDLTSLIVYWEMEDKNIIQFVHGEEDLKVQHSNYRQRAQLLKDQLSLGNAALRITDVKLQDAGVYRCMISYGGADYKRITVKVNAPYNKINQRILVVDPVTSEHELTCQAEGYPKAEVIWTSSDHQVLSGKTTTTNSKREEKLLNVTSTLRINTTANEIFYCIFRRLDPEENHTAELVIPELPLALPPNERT

B1: hu333-1A Fab (Fab)
heavy (part 1 of 2): EVQLVESGGGLVQPGGSLRLSCAVSGFSLTSYGVHWVRQAPGKGLEWVAVIWAGGSTNYNSALMSRLTISKDNAKNSVYLQMNSLRAEDTAVYYCAKPYGNSAMDYWGQGTLVTVSS
heavy (part 2 of 2): HHHHHHHH
light: DIQMTQSPSTLSASVGDRVTITCKASQDVGIVVAWYQQKPGKAPKLLIYWASIRHTGVPSRFSGSGSGTEFTLTISSLQPDDFATYYCQQYSNYPLYTFGQGTKLEIK
notes: not shown: human IgG2 CH1 (printed IgG2a-CH1); human constant region of kappa chain
The term IC50 denotes the point on the concentration scale where inhibition reaches its midpoint. B1: the IC50 in assay [1] came out at 0.049 µg/mL. In [2], the “IL-2 release in HuT78/P3Z, IC50” value was determined as 0.012 µg/mL and the “IL-2 release in HuT78/PD-1, EC50” value was found to be 0.066 µg/mL. Further, in assay [3], the IC50 was 0.057 µg/mL.

B2: hu333-4A2 Fab (Fab)
heavy (part 1 of 2): B1 heavy (part 1 of 2) with N60V, S61D, A62S, L63V, M64K, S65G, L67F, S77T, N101T
heavy (part 2 of 2): HHHHHH
light: B1 light with T10S, L105V
notes: not shown: human IgG1-CH1; human constant region of kappa chain
A word on the Kd: it is the equilibrium constant for the complex coming apart. The kon is the rate constant with which the complex forms. By koff is commonly meant the rate constant with which the complex falls apart. As to B2, the “IL-2 release in HuT78/P3Z, IC50” value in assay [4] was 0.005 µg/mL. In addition, in [4], the “IL-2 release in HuT78/PD-1, EC50” value was 0.05 µg/mL. In addition, the IC50 was 0.05 µg/mL in [5] and 0.045 µg/mL in assay [11]. Moreover, the Kd turned out to be 2.65 pM in the assay with human PD-L1-ECD/His [6], 2.91 pM in assay [8] and 2.65 pM with human PD-L1-ECD/His [9]. The figures for the kon (in the assay with human PD-L1-ECD/His [6]; in assay [8]; with human PD-L1-ECD/His [9]) were 3.88e+06 M⁻¹ s⁻¹, 3.19e+06 M⁻¹ s⁻¹ and 3.88e+06 M⁻¹ s⁻¹, respectively. The koff is 1.03e-05 s⁻¹ with human PD-L1-ECD/His [7], 9.3e-06 s⁻¹ in assay [10] and 1.03e-05 s⁻¹ with human PD-L1-ECD/His [12].

B3: hu333-4B2 Fab (Fab)
heavy (part 1 of 2): EVQLVESGGGLVQPGGSLRLSCAVSGFSLTSYGVHWVRQAPGKGLEWVAVIWAGGSTNYADSVKGRFTISKDTSKNTVYLQMNSLRAEDTAVYYCAKPYGTSAMDYWGQGTLVTVSS
heavy (part 2 of 2): HHHHHH
light: B1 light with T10S, L105V
notes: as for B2
As for B3, the “IL-2 release in HuT78/P3Z, IC50” value in assay [4] was found to be 0.016 µg/mL. Besides, the “IL-2 release in HuT78/PD-1, EC50” value in assay [4] worked out at 0.058 µg/mL. The IC50 came to 0.053 µg/mL in [5] and 0.062 µg/mL in assay [11]. The Kd in the assay with human PD-L1-ECD/His [6] stood at 3.5 pM; in [8], 2.5 pM; with human PD-L1-ECD/His [9], 3.5 pM. Moreover, the kon was found to be 3.78e+06 M⁻¹ s⁻¹ with human PD-L1-ECD/His [6], 3.2e+06 M⁻¹ s⁻¹ in assay [8] and 3.78e+06 M⁻¹ s⁻¹ in the assay with human PD-L1-ECD/His [9]. The figures for the koff (with human PD-L1-ECD/His [7]; in assay [10]; with human PD-L1-ECD/His [12]) were 1.32e-05 s⁻¹, 8e-06 s⁻¹ and 1.32e-05 s⁻¹, respectively.

B4: hu333-4B2-IgG1mc (antibody)
heavy: EVQLVESGGGLVQPGGSLRLSCAVSGFSLTSYGVHWVRQAPGKGLEWVAVIWAGGSTNYADSVKGRFTISKDTSKNTVYLQMNSLRAEDTAVYYCAKPYGTSAMDYWGQGTLVTVSSASTKGPSVFPLAPSSKSTSGGTAALGCLVKDYFPEPVTVSWNSGALTSGVHTFPAVLQSSGLYSLSSVVTVPSSSLGTQTYICNVNHKPSNTKVDKKVEPKSCDKTHTCPPCPAPPAAAPSVFLFPPKPKDTLMISRTPEVTCVVVDVSHEDPEVKFNWYVDGVEVHNAKTKPREEQYNSTYRVVSVLTVLHQDWLNGKEYKCKVSNKALAAPIEKTISKAKGQPREPQVYTLPPSRDELTKNQVSLTCLVKGFYPSDIAVEWESNGQPENNYKTTPPVLDSDGSFFLYSKLTVDKSRWQQGNVFSCSVMHEALHNHYTQKSLSLSPGK
light: DIQMTQSPSSLSASVGDRVTITCKASQDVGIVVAWYQQKPGKAPKLLIYWASIRHTGVPSRFSGSGSGTEFTLTISSLQPDDFATYYCQQYSNYPLYTFGQGTKVEIKRTVAAPSVFIFPPSDEQLKSGTASVVCLLNNFYPREAKVQWKVDNALQSGNSQESVTEQDSKDSTYSLSSTLTLSKADYEKHKVYACEVTHQGLSSPVTKSFNRGEC
notes: also called hu333-4B2-IgGlmc
Turning to B4, in assay [13], the binding result was “binds”.

B5: hu333-4A2-IgG1mc (antibody)
heavy: B4 heavy with A60V, T73N, S74A
light: B4 light
notes: also called hu333-4A2-IgGlmc
Regarding B5, the binding result in assay [13] is “binds”.

B6: hu333-4B2-IgG1mf (antibody)
heavy: B4 heavy with A236G
light: B4 light
Turning to B6, the binding result in [13] was “binds”.
